Values quoted from earlier work in article PMC4624693.

Legend:
Asp11 = Asp11 (UniProt position 987, CPSSYDGYCLN); test: NMR; settings: free, folded protein
His22 = His22 (UniProt position 998, GGVCMHIESLD); test: NMR; settings: free, folded protein
Glu24 = Glu24 (UniProt position 1000, VCMHIESLDSY); test: NMR; settings: free, folded protein
Asp46 = Asp46 (UniProt position 1022, RCQTRDLRWWE); test: NMR; settings: free, folded protein
Asp27 = Asp27 (UniProt position 1003, HIESLDSYTCN); test: NMR; settings: free, folded protein
Asp40 = Asp40 (UniProt position 1016, IGYSGDRCQTR); test: NMR; settings: free, folded protein
Nterm1 = Nterm1 (UniProt position 977, HHLDRNSYPGC); test: NMR; settings: free, folded protein
Cterm53 = Cterm53 (UniProt position 1029, RWWELRHAGYG); test: NMR; settings: free, folded protein
Glu51 = Glu51 (UniProt position 1027, DLRWWELRHAG); test: NMR; settings: free, folded protein
Lys66 = Lys66 (UniProt position 148, FTKKMKENAKK)
Asp = settings: free peptide

Molecule: Epidermal growth factor (mouse EGF) (Mus musculus)
- pKa (Asp11): 3.9±0.05
- pKa (His22): 6.8±0.1
- pKa (Glu24): 4.1±0.1
- pKa (Asp46): 3.8±0.1
- pKa (Asp27): 4.0±0.1
- pKa (Asp40): 3.6±0.1
- pKa (Nterm1): 7.7±0.1
- pKa (Cterm53): 3.5±0.1
- pKa (Glu51): ~4

Molecule: Staphylococcal nuclease Delta+PHS/V66K (Staphylococcus aureus; V66K; Delta+PHS background (substitutions not listed in the article))
- pKa (Lys66): 5.6

Molecule: SDNKTYG
- pKa (Asp): 3.6
